# Data published in the supplement of paper PMC5998384.
# Experiments:
# HeLa Kyoto [1] = assay: solubility in G1/S (NP-40 vs SDS abundance) (log2 ratio); higher = more soluble; settings: cell cycle stage: G1/S
# HeLa Kyoto [2] = assay: thermal stability score vs G1/S (z-score of summed log2 fold changes over temperatures); higher = more thermally stable than in G1/S
# HeLa Kyoto [3] = assay: solubility change mitosis vs G1/S (difference of NP-40 vs SDS log2 ratios) (log2 ratio difference); higher = more soluble in mitosis
# HeLa Kyoto [4] = assay: melting temperature (median over replicates), in situ; higher = more thermally stable
# [5] = cell cycle stage: early G1 (4.5 h after nocodazole release)
# 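Throughout, for melting temperature (median over replicates), in situ: HeLa Kyoto cells synchronized by double thymidine or nocodazole block, proteins quantified by TMT10plex mass spectrometry, three independent biological replicates.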
# 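Throughout, for solubility change mitosis vs G1/S (difference of NP-40 vs SDS log2 ratios): synchronized HeLa Kyoto cells (double thymidine block for G1/S, nocodazole release for mitosis), protein amounts in NP-40 versus SDS lysates quantified by mass spectrometry, three biological replicates.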
# 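Throughout, for solubility in G1/S (NP-40 vs SDS abundance): HeLa Kyoto cells arrested at G1/S by double thymidine block, proteins quantified by TMT10plex mass spectrometry in mild NP-40 versus SDS extracts, three biological replicates.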
# 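Throughout, for thermal stability score vs G1/S (z-score of summed log2 fold changes over temperatures): synchronized HeLa Kyoto cells, proteins quantified by TMT10plex mass spectrometry, three biological replicates, mitosis taken 0.5 h after nocodazole release, G1/S directly after double thymidine block.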
Substance,solubility in G1/S (log2) (HeLa Kyoto [1]),thermal stability score (HeLa Kyoto [2]; [5]),thermal stability score (HeLa Kyoto [2]; cell cycle stage: mitosis),solubility change mitosis (log2) (HeLa Kyoto [3]),melting temperature (HeLa Kyoto [4]; cell cycle stage: G1/S) [°C],melting temperature (HeLa Kyoto [4]; cell cycle stage: mitosis) [°C]
MFGTLLLYCFFLATVPALAETGGERQLSPEKSEIWGPGLKADVVLPARYFYIQAVDTSGNKFTSSPGEKVFQVKVSAPEEQFTRVGVQVLDRKDGSFIVRYRMYASYKNLKVEIKFQGQHVAKSPYILKGPVYHENCDCPLQDSAAWLREMNCPETIAQIQRDLAHFPAVDPEKIAVEIPKRFGQRQSLCHYTLKDNKVYIKTHGEHVGFRIFMDAILLSLTRKVKMPDVELFVNLGDWPLEKKKSNSNIHPIFSWCGSTDSKDIVMPTYDLTDSVLETMGRVSLDMMSVQANTGPPWESKNSTAVWRGRDSRKERLELVKLSRKHPELIDAAFTNFFFFKHDENLYGPIVKHISFFDFFKHKYQINIDGTVAAYRLPYLLVGDSVVLKQDSIYYEHFYNELQPWKHYIPVKSNLSDLLEKLKWAKDHDEEAKKIAKAGQEFARNNLMGDDIFCYYFKLFQEYANLQVSEPQIREGMKRVEPQTEDDLFPCTCHRKKTKDEL [KDELC1],0.0317,2.25,2.83,-0.102,53.5,54
MFPAAPSPRTPGTGSRRGPLAGLGPGSTPRTASRKGLPLGSAVSSPVLFSPVGRRSSLSSRGTPTRMFPHHSITESVNYDVKTFGSSLPVKVMEALTLAEVDDQLTINIDEGGWACLVCKEKLIIWKIALSPITKLSVCKELQLPPSDFHWSADLVALSYSSPSGEAHSTQAVAVMVATREGSIRYWPSLAGEDTYTEAFVDSGGDKTYSFLTAVQGGSFILSSSGSQLIRLIPESSGKIHQHILPQGQGMLSGIGRKVSSLFGILSPSSDLTLSSVLWDRERSSFYSLTSSNISKWELDDSSEKHAYSWDINRALKENITDAIWGSESNYEAIKEGVNIRYLDLKQNCDGLVILAAAWHSADNPCLIYYSLITIEDNGCQMSDAVTVEVTQYNPPFQSEDLILCQLTVPNFSNQTAYLYNESAVYVCSTGTGKFSLPQEKIVFNAQGDSVLGAGACGGVPIIFSRNSGLVSITSRENVSILAEDLEGSLASSVAGPNSESMIFETTTKNETIAQEDKIKLLKAAFLQYCRKDLGHAQMVVDELFSSHSDLDSDSELDRAVTQISVDLMDDYPASDPRWAESVPEEAPGFSNTSLIILHQLEDKMKAHSFLMDFIHQVGLFGRLGSFPVRGTPMATRLLLCEHAEKLSAAIVLKNHHSRLSDLVNTAILIALNKREYEIPSNLTPADVFFREVSQVDTICECLLEHEEQVLRDAPMDSIEWAEVVINVNNILKDMLQAASHYRQNRNSLYRREESLEKEPEYVPWTATSGPGGIRTVIIRQHEIVLKVAYPQADSNLRNIVTEQLVALIDCFLDGYVSQLKSVDKSSNRERYDNLEMEYLQKRSDLLSPLLSLGQYLWAASLAEKYCDFDILVQMCEQTDNQSRLQRYMTQFADQNFSDFLFRWYLEKGKRGKLLSQPISQHGQLANFLQAHEHLSWLHEINSQELEKAHATLLGLANMETRYFAKKKTLLGLSKLAALASDFSEDMLQEKIEEMAEQERFLLHQETLPEQLLAEKQLNLSAMPVLTAPQLIGLYICEENRRANEYDFKKALDLLEYIDEEEDININDLKLEILCKALQRDNWSSSDGKDDPIEVSKDSIFVKILQKLLKDGIQLSEYLPEVKDLLQADQLGSLKSNPYFEFVLKANYEYYVQGQI [NUP133],-0.454,-2.95,-2.97,0.284,51.9,49.6
MFPFYSCWRTGLLLLLLAVAVRESWQTEEKTCDLVGEKGKESEKELALVKRLKPLFNKSFESTVGQGSDTYIYIFRVCREAGNHTSGAGLVQINKSNGKETVVGRLNETHIFNGSNWIMLIYKGGDEYDNHCGKEQRRAVVMISCNRHTLADNFNPVSEERGKVQDCFYLFEMDSSLACSPEISHLSVGSILLVTFASLVAVYVVGGFLYQRLVVGAKGMEQFPHLAFWQDLGNLVADGCDFVCRSKPRNVPAAYRGVGDDQLGEESEERDDHLLPM [M6PR],0.0483,-1.67,-2.67,-0.128,60.3,59.1
MFQFHAGSWESWCCCCLIPADRPWDRGQHWQLEMADTRSVHETRFEAAVKVIQSLPKNGSFQPTNEMMLKFYSFYKQATEGPCKLSRPGFWDPIGRYKWDAWSSLGDMTKEEAMIAYVEEMKKIIETMPMTEKVEELLRVIGPFYEIVEDKKSGRSSDITSVRLEKISKCLEDLGNVLTSTPNAKTVNGKAESSDSGAESEEEEAQEEVKGAEQSDNDKKMMKKSADHKNLEVIVTNGYDKDGFVQDIQNDIHASSSLNGRSTEEVKPIDENLGQTGKSAVCIHQDINDDHVEDVTGIQHLTSDSDSEVYCDSMEQFGQEESLDSFTSNNGPFQYYLGGHSSQPMENSGFREDIQVPPGNGNIGNMQVVAVEGKGEVKHGGEDGRNNSGAPHREKRGGETDEFSNVRRGRGHRMQHLSEGTKGRQVGSGGDGERWGSDRGSRGSLNEQIALVLMRLQEDMQNVLQRLQKLETLTALQAKSSTSTLQTAPQPTSQRPSWWPFEMSPGVLTFAIIWPFIAQWLVYLYYQRRRRKLN [ACBD5],0.0763,2.16,3.53,-0.129,47.3,49.4
MFQLPVNNLGSLRKARKTVKKILSDIGLEYCKEHIEDFKQFEPNDFYLKNTTWEDVGLWDPSLTKNQDYRTKPFCCSACPFSSKFFSAYKSHFRNVHSEDFENRILLNCPYCTFNADKKTLETHIKIFHAPNASAPSSSLSTFKDKNKNDGLKPKQADSVEQAVYYCKKCTYRDPLYEIVRKHIYREHFQHVAAPYIAKAGEKSLNGAVPLGSNAREESSIHCKRCLFMPKSYEALVQHVIEDHERIGYQVTAMIGHTNVVVPRSKPLMLIAPKPQDKKSMGLPPRIGSLASGNVRSLPSQQMVNRLSIPKPNLNSTGVNMMSSVHLQQNNYGVKSVGQGYSVGQSMRLGLGGNAPVSIPQQSQSVKQLLPSGNGRSYGLGSEQRSQAPARYSLQSANASSLSSGQLKSPSLSQSQASRVLGQSSSKPAAAATGPPPGNTSSTQKWKICTICNELFPENVYSVHFEKEHKAEKVPAVANYIMKIHNFTSKCLYCNRYLPTDTLLNHMLIHGLSCPYCRSTFNDVEKMAAHMRMVHIDEEMGPKTDSTLSFDLTLQQGSHTNIHLLVTTYNLRDAPAESVAYHAQNNPPVPPKPQPKVQEKADIPVKSSPQAAVPYKKDVGKTLCPLCFSILKGPISDALAHHLRERHQVIQTVHPVEKKLTYKCIHCLGVYTSNMTASTITLHLVHCRGVGKTQNGQDKTNAPSRLNQSPSLAPVKRTYEQMEFPLLKKRKLDDDSDSPSFFEEKPEEPVVLALDPKGHEDDSYEARKSFLTKYFNKQPYPTRREIEKLAASLWLWKSDIASHFSNKRKKCVRDCEKYKPGVLLGFNMKELNKVKHEMDFDAEWLFENHDEKDSRVNASKTADKKLNLGKEDDSSSDSFENLEEESNESGSPFDPVFEVEPKISNDNPEEHVLKVIPEDASESEEKLDQKEDGSKYETIHLTEEPTKLMHNASDSEVDQDDVVEWKDGASPSESGPGSQQVSDFEDNTCEMKPGTWSDESSQSEDARSSKPAAKKKATMQGDREQLKWKNSSYGKVEGFWSKDQSQWKNASENDERLSNPQIEWQNSTIDSEDGEQFDNMTDGVAEPMHGSLAGVKLSSQQA [ADNP],-0.566,1.91,4.53,0.303,46.7,49.2
MFRKARRVNVRKRNDSEEEERERDEEQEPPPLLPPPGTGEEAGPGGGDRAPGGESLLGPGPSPPSALTPGLGAEAGGGFPGGAEPGNGLKPRKRPRENKEVPRASLLSFQDEEEENEEVFKVKKSSYSKKIVKLLKKEYKEDLEKSKIKTELNSSAESEQPLDKTGHVKDTNQEDGVIISEHGEDEMDMESEKEEEKPKTGGAFSNALSSLNVLRPGEIPDAAFIHAARKKRQMARELGDFTPHDNEPGKGRLVREDENDASDDEDDDEKRRIVFSVKEKSQRQKIAEEIGIEGSDDDALVTGEQDEELSRWEQEQIRKGINIPQVQASQPAEVNMYYQNTYQTMPYGSSYGIPYSYTAYGSSDAKSQKTDNTVPFKTPSNEMTPVTIDLVKKQLKDRLDSMKELHKTNRQQHEKHLQSRVDSTRAIERLEGSSGGIGERYKFLQEMRGYVQDLLECFSEKVPLINELESAIHQLYKQRASRLVQRRQDDIKDESSEFSSHSNKALMAPNLDSFGRDRALYQEHAKRRIAEREARRTRRRQAREQTGKMADHLEGLSSDDEETSTDITNFNLEKDRISKESGKVFEDVLESFYSIDCIKSQFEAWRSKYYTSYKDAYIGLCLPKLFNPLIRLQLLTWTPLEAKCRDFENMLWFESLLFYGCEEREQEKDDVDVALLPTIVEKVILPKLTVIAENMWDPFSTTQTSRMVGITLKLINGYPSVVNAENKNTQVYLKALLLRMRRTLDDDVFMPLYPKNVLENKNSGPYLFFQRQFWSSVKLLGNFLQWYGIFSNKTLQELSIDGLLNRYILMAFQNSEYGDDSIKKAQNVINCFPKQWFMNLKGERTISQLENFCRYLVHLADTIYRNSIGCSDVEKRNARENIKQIVKLLASVRALDHAMSVASDHNVKEFKSLIEGK [PAXBP1],-0.54,0.626,1.5,0.153,48.6,49
MFRRPVLQVLRQFVRHESETTTSLVLERSLNRVHLLGRVGQDPVLRQVEGKNPVTIFSLATNEMWRSGDSEVYQLGDVSQKTTWHRISVFRPGLRDVAYQYVKKGSRIYLEGKIDYGEYMDKNNVRRQATTIIADNIIFLSDQTKEKE [SSBP1],0.0755,0.62,-1.51,0.0149,59.5,59.6
MFSD10,-0.0104,-2.75,-4.59,-0.219,57.2,57.1
MFSFNMFDHPIPRVFQNRFSTQYRCFSVSMLAGPNDRSDVEKGGKIIMPPSALDQLSRLNITYPMLFKLTNKNSDRMTHCGVLEFVADEGICYLPHWMMQNLLLEEGGLVQVESVNLQVATYSKFQPQSPDFLDITNPKAVLENALRNFACLTTGDVIAINYNEKIYELRVMETKPDKAVSIIECDMNVDFDAPLGYKEPERQVQHEESTEGEADHSGYAGELGFRAFSGSGNRLDGKKKGVEPSPSPIKPGDIKRGIPNYEFKLGKITFIRNSRPLVKKVEEDEAGGRFVAFSGEGQSLRKKGRKP [UFD1L],0.0333,0.171,-0.639,-0.123,54.2,54.3
MFSLSSTVQPQVTVPLSHLINAFHTPKNTSVSLSGVSVSQNQHRDVVPEHEAPSSECMFSDFLTKLNIVSIGKGKIFEGYRSMFMEPAKRMKKSLDTTDNWHIRPEPFSLSIPPSLNLRDLGLSELKIGQIDQLVENLLPGFCKGKNISSHWHTSHVSAQSFFENKYGNLDIFSTLRSSCLYRHHSRALQSICSDLQYWPVFIQSRGFKTLKSRTRRLQSTSERLAETQNIAPSFVKGFLLRDRGSDVESLDKLMKTKNIPEAHQDAFKTGFAEGFLKAQALTQKTNDSLRRTRLILFVLLLFGIYGLLKNPFLSVRFRTTTGLDSAVDPVQMKNVTFEHVKGVEEAKQELQEVVEFLKNPQKFTILGGKLPKGILLVGPPGTGKTLLARAVAGEADVPFYYASGSEFDEMFVGVGASRIRNLFREAKANAPCVIFIDELDSVGGKRIESPMHPYSRQTINQLLAEMDGFKPNEGVIIIGATNFPEALDNALIRPGRFDMQVTVPRPDVKGRTEILKWYLNKIKFDQSVDPEIIARGTVGFSGAELENLVNQAALKAAVDGKEMVTMKELEFSKDKILMGPERRSVEIDNKNKTITAYHESGHAIIAYYTKDAMPINKATIMPRGPTLGHVSLLPENDRWNETRAQLLAQMDVSMGGRVAEELIFGTDHITTGASSDFDNATKIAKRMVTKFGMSEKLGVMTYSDTGKLSPETQSAIEQEIRILLRDSYERAKHILKTHAKEHKNLAEALLTYETLDAKEIQIVLEGKKLEVR [YME1L1],0.0482,2.02,1.49,-0.0396,50.9,50.8
